# From the RNAGym collection of RNA variant scans (doi:10.7554/elife.80360)
# B1: HDV Ribozyme (parent)
# chain: GGCCGGCAUGGUCCCAGCCUCCUCGCUGGCGCCGGCUGGGCAACAUUCCGAGGGGACCGUCCCCUCGGUAAUGGCGAAUGGGACCCA
# Variants of: B1
# Test: self-cleavage, relative activity (ratio to wild type); higher = more cleavage; co-transcriptional
row,Variant,self-cleavage
1,U69C C85G,0.988
2,U69C C85A,1.14
3,C66G G67U,0.831
4,C66G G67C,1.01
5,C66A G80A,0.54
6,C66A G80U,0.304
7,G67C C86G,0.933
8,G68A C75U,0.0615
9,U69C U79C,0.404
10,C66U C85A,1
11,G68A G80U,0.251
12,G68A G80C,0.286
13,G68A G80A,0.367
14,G67U C86G,0.945
15,G67U C86U,0.933
16,C66A G76U,0.981
17,C66A G76C,0.976
18,G67A U69G,0.776
19,G67A U69C,0.927
20,G67A U69A,1
21,C66G U69G,1.18
22,C66G U69A,0.917
23,G68C G73A,0.193
24,G68C G73C,0.0511

row,Variant,self-cleavage
1,G68C G73U,0.158
2,G67U G80A,0.355
3,G67U G80C,0.128
4,G68U U79C,0.415
5,U69C G73U,0.489
6,U69C G73C,0.633
7,C66A U72G,0.332
8,C66A U72A,0.608
9,G67C U79C,0.305
10,G67C U79G,0.435
11,G67C U79A,0.935
12,G67U G76U,1.08
13,G67U G76A,1.18
14,G67U G76C,1.1
15,G68A C84A,0.817
16,G68A G81A,0.389
17,G68A G81C,0.175
18,G67C G81C,0.286
19,G67C G81U,0.157
20,G67C G81A,0.369
21,G68C G74C,0.181
22,C66U G73A,0.66
23,C66U G73C,0.528
24,C66U G73U,0.284

row,Variant,self-cleavage
1,C66G C85G,0.969
2,G68A A77C,0.155
3,G68A A77G,0.743
4,G68A A77U,0.394
5,U69A A83G,0.712
6,G67U G73A,0.451
7,G67U G73U,0.263
8,C66G G80U,0.116
9,C66G G80C,0.0959
10,G68C C84G,0.639
11,G68C C84A,1.06
12,G67C G73A,0.327
13,G67C G73C,0.212
14,G68A A71G,0.904
15,G68A A71U,0.867
16,U69C G81C,0.231
17,C66A U69G,0.755
18,C66A U69C,1.1
19,C66A U69A,1.16
20,U69C G82C,0.361
21,U69C G82U,0.554
22,G67C A77U,0.707
23,C66G G82A,0.369
24,C66G G76U,0.88

row,Variant,self-cleavage
1,C66G G76C,0.73
2,U69A G73C,0.264
3,U69A G73U,0.494
4,U69A A70U,0.95
5,G68A G82C,0.153
6,G68A U69A,1
7,U69A A77U,0.591
8,G67A C75U,0.189
9,G67A C75A,0.185
10,G68C A71U,0.68
11,C66U C86A,0.905
12,U69C A87C,1.18
13,U69C A87U,0.993
14,U69A C85A,0.767
15,U69A C85G,1.16
16,G68A C85A,0.831
17,U69A G76U,0.95
18,U69A G76A,0.727
19,U69A G76C,0.906
20,G67U C85U,0.972
21,G68C C86G,1.07
22,G68C C86A,1.1
23,G68C C86U,0.997
24,U69A G81C,0.325

row,Variant,self-cleavage
1,G67C G82C,0.289
2,G67C G82U,0.185
3,G67C G82A,0.108
4,G68C G80C,0.208
5,G68C G80U,0.322
6,C66A G81C,0.163
7,C66A G81A,0.354
8,G67U A83U,0.469
9,G67U A83C,0.635
10,G68U A87U,1
11,G68U A87G,0.908
12,G67A C86U,0.845
13,G67A C86A,0.985
14,G67A C86G,0.895
15,U69C A78C,0.322
16,G68C A78U,0.35
17,G67A C85U,1.03
18,G67A C85A,0.844
19,G67A C85G,1.1
20,G68A A78G,0.727
21,G68U A77U,0.578
22,G68C A87G,0.948
23,G68C A87C,0.73
24,C66U A83U,0.43

row,Variant,self-cleavage
1,G67U C84G,0.609
2,G67U C84A,0.746
3,G67A A70C,0.475
4,G67A A70U,0.776
5,C66G A70U,1.08
6,C66G A70C,0.758
7,C66G A70G,0.831
8,C66U G68C,0.753
9,C66U G68U,0.935
10,C66U G68A,0.92
11,G68U C85U,0.972
12,C66A A78U,0.198
13,C66A A78G,0.538
14,U69C C75G,0.213
15,U69C C75A,0.0536
16,G67A G73A,0.492
17,G67A G81U,0.101
18,G67A G81C,0.117
19,U69C G80U,0.0898
20,C66G A78G,0.875
21,C66G A78U,0.48
22,C66G A78C,0.148
23,G68A A83U,0.424
24,G67A G68A,0.946

row,Variant,self-cleavage
1,G67A G68U,0.79
2,G67C A78C,0.0639
3,G67C A78G,0.492
4,C66U A77G,0.489
5,G68A G74U,0.612
6,G68A G74C,0.314
7,G68A A87U,0.831
8,G68A A87G,0.995
9,G68C G81C,0.0594
10,C66A C75G,0.181
11,C66A C75U,0.292
12,U69A A78U,0.222
13,U69A A78C,0.208
14,C66U G74C,0.363
15,G68A A70U,1.12
16,G68A A70C,0.707
17,G68A A70G,1.07
18,C66U A71C,0.54
19,G68C G82A,0.237
20,G68C G82U,0.352
21,C66A C85A,0.939
22,G67U A70G,1.16
23,G67U A70U,0.812
24,U69C G76C,1.11

row,Variant,self-cleavage
1,U69C G76U,1.29
2,U69C G76A,1.07
3,G67A A71U,0.725
4,C66G C75G,0.383
5,C66G C75A,0.166
6,G68U C86A,0.956
7,G68U C86U,1.05
8,G68U G80A,0.171
9,C66U G82A,0.649
10,C66U G82C,0.268
11,G67U G82U,0.227
12,G67U U69G,1.03
13,G67U U69C,0.906
14,G67C A83U,0.469
15,U69C C86A,0.906
16,U69C C86U,0.727
17,U69C C86G,1.05
18,U69C A77C,0.612
19,U69C A77U,0.598
20,G68A C86U,0.965
21,G68A C86A,0.822
22,C66G G68A,0.695
23,G67A U79A,0.982
24,G67A U79C,0.509

row,Variant,self-cleavage
1,C66A G67U,0.878
2,C66A G67C,0.845
3,G68U U69A,0.912
4,G68U U69G,0.773
5,U69C G74A,0.554
6,U69C G74U,0.575
7,U69C A70G,0.889
8,U69A A87C,1.01
9,U69A A87G,0.99
10,C66A U79G,0.804
11,G68A U79C,0.233
12,U69A U79C,0.499
13,U69A U79G,0.831
14,C66A C86U,0.9
15,C66A C86A,0.769
16,G68C G76C,1.03
17,G68C G76U,1.23
18,G68C A70G,0.639
19,G68C A70C,0.63
20,C66G G74A,0.471
21,C66G G74U,0.396
22,G68C A77G,0.554
23,G68C A77U,0.755
24,G67U C75G,0.185

row,Variant,self-cleavage
1,C66U A87U,1.23
2,G68C A83G,0.356
3,G67C A70C,0.655
4,G67C A70U,0.851
5,U69A G80U,0.141
6,U69A G80C,0.38
7,G67C A71C,0.657
8,C66A A77U,0.776
9,G68U G76A,0.953
10,U69C A83U,0.431
11,U69C A83G,0.755
12,U69A G82U,0.491
13,G67U A77G,0.489
14,G67U A77U,0.681
15,G67A A77C,0.325
16,C66U C75G,0.141
17,C66U C75A,0.176
18,C66U C75U,0.173
19,G68U A71U,1.01
20,G68U A71G,1.04
21,G68U A71C,0.973
22,G67A A87G,0.936
23,C66U A78U,0.309
24,U69C A71G,0.974

row,Variant,self-cleavage
1,G68U U72G,0.359
2,G68U U72A,0.277
3,G67U G81C,0.305
4,U69A A71G,0.731
5,C66U G67U,0.972
6,C66A C84A,0.831
7,C66A C84U,0.696
8,U69C U72G,0.529
9,C66A A83C,0.527
10,C66A A83U,0.225
11,C66A A83G,0.641
12,G68C U79C,0.302
13,C66A G74C,0.293
14,C66A G74U,0.739
15,C66A G74A,0.519
16,G68C U69A,0.739
17,G68C U69G,1.21
18,G68C U69C,0.697
19,G67C G80U,0.223
20,G67C G80A,0.464
21,G67C G80C,0.189
22,C66U G81U,0.382
23,C66U G81A,0.509
24,G67U G68A,0.972

row,Variant,self-cleavage
1,G67U G68C,0.962
2,G67U G68U,0.76
3,G67C A87C,0.84
4,C66U U72G,0.582
5,G68C C85G,0.733
6,G68U A78G,0.639
7,G68U A78U,0.237
8,U69A C84A,0.935
9,U69A C84U,0.639
10,G68U G73A,0.481
11,G68U G82A,0.153
12,G68U G82U,0.265
13,G67A U72G,0.383
14,G68A G76A,1
15,C66A A87G,0.898
16,G67U U72G,0.389
17,G67U U79C,0.231
18,G67U U79A,0.601
19,G67U U79G,0.516
20,G68U C84G,0.525
21,C66U G80C,0.153
22,C66U G80A,0.475
23,G68U A70U,0.849
24,G68U A70C,0.582

row,Variant,self-cleavage
1,G67A G80A,0.41
2,G67A G80C,0.172
3,U69A U72A,0.609
4,U69A U72G,0.883
5,U69A U72C,0.665
6,U69A C86U,0.739
7,U69A C86A,1
8,U69A C86G,1.09
9,G68A U72C,0.594
10,G68A U72G,0.312
11,C66A G82A,0.356
12,G67A G82U,0.348
13,G67A G82A,0.285
14,C66A G73A,0.63
15,C66A G73U,0.171
16,C66A G73C,0.277
17,G67A G74U,0.534
18,G68C C75A,0.0346
19,G68C C75G,0.128
20,C66G A83C,0.178
21,C66A G68A,0.805
22,C66A G68C,0.453
23,G67C C84A,0.682
24,C66G G73U,0.389

row,Variant,self-cleavage
1,C66G G73A,0.434
2,G67A A83G,0.39
3,G67A G76U,0.965
4,G67A G76C,0.926
5,G67U A71G,1.12
6,G67U A71C,0.892
7,G67C G68A,0.955
8,G67C G68C,0.566
9,G67C G68U,0.847
10,C66G A77U,0.597
11,C66G U79A,0.808
12,C66U G76U,0.936
13,C66U G76C,0.965
14,C66U G76A,0.86
15,C66G U72C,0.453
16,C66G U72G,0.266
17,C66G U72A,0.587
18,G68U G74U,0.604
19,G68U C75G,0.228
20,G68U C75U,0.225
21,G67C C85A,0.7
22,G67C C85G,0.96
